Laboratory results reported in US11162124B2, “Alcohol dehydrogenase mutant and application thereof in cofactor regeneration” (Jiangnan University, priority 2018, dated 2021).
Numbering of substitutions follows the chain as printed. Names may count otherwise.

Key:
[1] = test system: OCCCCO; test: purified protein, by the assay type; conditions: other: mutant M2, 1 mM NADP+, Gly-NaOH pH 9.5, 30° C.
[2] = substrate: OCCCCO; test: purified protein, by the assay type; conditions: other: wild-type KpADH, 1 mM NADP+, Gly-NaOH pH 9.5, 30° C.
[3] = substrate: OCCCCCO; test: Kinetic analysis of wild-type KpADH toward diol co-substrates; type: biochemical; conditions: other: wild-type KpADH, 1 mM NADP+, Gly-NaOH pH 9.5, 30° C.
Method: (§1) Changes in absorbance at 340 nm are measured.
(§2) The enzyme activity is calculated using the following formula: Enzyme activity (U)=EW×V×10^3/(6220×I);
(§3) In the formula, EW is the change in absorbance at 340 nm in 1 min; V is the volume of the reaction solution in mL; 6220 is the molar extinction coefficient of NAD(P)H in L/(mol·cm); I is optical distance in cm.
(§4) One unit of activity (U) corresponds to the amount of enzyme required for the catalytic oxidation of 1 μmol NADP^+ per minute under the above conditions.
(§5) Kinetic measurement is conducted according to the enzyme activity assay, with 10 μL of alcohol substrates of different concentrations, 1 mM NADP^+, 10 μL of enzymes of appropriate concentrations, 170 μL of glycine-sodium hydroxide buffer at pH 9.5, with each sample in triplicate. […] The calculation formulas are as follows: […]
(§6) The Vmax and Km values can be calculated from the intercepts of the double reciprocal plot on the X and Y axes;
(§7) The kcat value can be further calculated according to the formula.
(§8) The activity of KpADH under different substrate concentrations and cofactor concentrations was measured, and a double reciprocal plot was made according to the reciprocals of the activity and substrate concentration. The kinetic parameters were calculated.
(§9) The activity of KpADH under different substrate concentrations and cofactor concentrations was measured, and a double reciprocal plots were made according to the reciprocals of the activity and substrate concentration. The kinetic parameters were calculated.

[4] = substrate: OCCCCCCO; test: Kinetic analysis of KpADH mutant M2 toward diol co-substrates; type: biochemical; conditions: other: mutant M2, 1 mM NADP+, Gly-NaOH pH 9.5, 30° C.
Method: (§10) M2 is obtained by mutating tyrosine at position 127 into cysteine in alcohol dehydrogenase having an original amino acid sequence as set forth in SEQ ID No. 1;
as §1, §2, §3, §4, §5, §6, §7, §8, §9

[5] = substrate: OCCCCCO; test: as above; type: biochemical; conditions: other: mutant M2, 1 mM NADP+, Gly-NaOH pH 9.5, 30° C.
Method: as §10, §1, §2, §3, §4, §5, §6, §7, §8, §9

[6] = substrate: OCCCCCCO; test: Kinetic analysis of KpADH mutant M3 toward diol co-substrates; type: biochemical; conditions: other: mutant M3, 1 mM NADP+, Gly-NaOH pH 9.5, 30° C.
Method: (§11) M3 is obtained by mutating tyrosine at position 127 into methionine in alcohol dehydrogenase having an original amino acid sequence as set forth in SEQ ID No. 1;
as §1, §2, §3, §4, §5, §6, §7, §8, §9

[7] = substrate: OCCCCCO; test: as above; type: biochemical; conditions: other: mutant M3, 1 mM NADP+, Gly-NaOH pH 9.5, 30° C.
Method: as §11, §1, §2, §3, §4, §5, §6, §7, §8, §9

[8] = substrate: OCCCCCCO; test: Kinetic analysis of KpADH mutant M4 toward diol co-substrates; type: biochemical; conditions: other: mutant M4, 1 mM NADP+, Gly-NaOH pH 9.5, 30° C.
Method: (§12) M4 is obtained by mutating valine at position 84 into isoleucine and tyrosine at position 127 into cysteine in alcohol dehydrogenase having an original amino acid sequence as set forth in SEQ ID No. 1;
as §1, §2, §3, §4, §5, §6, §7, §8, §9

[9] = substrate: OCCCCCO; test: as above; type: biochemical; conditions: other: mutant M4, 1 mM NADP+, Gly-NaOH pH 9.5, 30° C.
Method: as §12, §1, §2, §3, §4, §5, §6, §7, §8, §9

[10] = substrate: OCCCCCCO; test: Kinetic analysis of KpADH mutant M5 toward diol co-substrates; type: biochemical; conditions: other: mutant M5, 1 mM NADP+, Gly-NaOH pH 9.5, 30° C.
Method: (§13) the M5 is obtained by mutating valine at position 84 into isoleucine and tyrosine at position 127 into methionine in alcohol dehydrogenase having an original amino acid sequence as set forth in SEQ ID No. 1.
as §1, §2, §3, §4, §5, §6, §7, §8, §9

[11] = substrate: OCCCCCO; test: as above; type: biochemical; conditions: other: mutant M5, 1 mM NADP+, Gly-NaOH pH 9.5, 30° C.
Method: as §13, §1, §2, §3, §4, §5, §6, §7, §8, §9

[12] = substrate: OCCCCCCO; test: Kinetic analysis of KpADH mutant M1 toward diol co-substrates; type: biochemical; conditions: other: mutant M1, 1 mM NADP+, Gly-NaOH pH 9.5, 30° C.
Method: (§14) M1 is obtained by mutating valine at position 84 into isoleucine in alcohol dehydrogenase having an original amino acid sequence as set forth in SEQ ID No. 1;
as §1, §2, §3, §4, §5, §6, §7, §8, §9

[13] = substrate: OCCCCCO; test: as above; type: biochemical; conditions: other: mutant M1, 1 mM NADP+, Gly-NaOH pH 9.5, 30° C.
Method: as §14, §1, §2, §3, §4, §5, §6, §7, §8, §9

Molecule: alcohol dehydrogenase KpADH mutant M2 (Y127C; parent SEQ ID No. 1) (Vanderwaltozyma polyspora DSM 70294; Y127C)
- Km [1]: 38.1 ± 1.9 mM
- kcat [1]: 0.463 s⁻¹
- kcat/Km [1]: 12.2 M⁻¹ s⁻¹

B1: alcohol dehydrogenase KpADH, wild type, SEQ ID No. 1 (Vanderwaltozyma polyspora DSM 70294) (protein)
chain: MSVLISGASGYIAKHIVRVLLEQNYKVIGTVRSQDKADKLLKQYNNPNLSYEIVPEIANLDAFDDIFKKHGKEIKYVIHAASPVNFGAKDLEKDLVIPAINGTKNMFEAIKKYAPDTVERVVMTASYASIMTPHRQNDPTLTLDEETWNPVTEENAYENVFTAYCASKTFAEKEAWKFVKENSDAVKFKLTTIHPSFVFGPQNFDEDVTKKLNETCEIINGLLHAPFDTKVEKTHFSQFIDVRDVAKTHVLGFQKDELINQRLLLCNGAFSQQDIVNVFNEDFPELKGQFPPEDKDTDLNKGVTGCKIDNEKTKKLLAFEFTPFHKTIHDTVYQILHKEGRV
- Km [2]: 75.6 ± 0.4 mM
- kcat [2]: 0.173 s⁻¹
- kcat/Km [2]: 2.28 M⁻¹ s⁻¹
- Km [3]: 74.4 ± 2.2 mM
- kcat [3]: 0.928 ± 0.0167 s⁻¹
- kcat/Km [3]: 12.5 M⁻¹ s⁻¹

B2: alcohol dehydrogenase KpADH mutant M2 (Y127C; parent SEQ ID No. 1) (Vanderwaltozyma polyspora DSM 70294; Y127C) (protein)
chain: B1 chain with Y127C
- Km [4]: 31.8 ± 1.7 mM
- kcat [4]: 0.603 ± 0.0367 s⁻¹
- kcat/Km [4]: 18.97 M⁻¹ s⁻¹
- Km [5]: 63.5 ± 0.1 mM
- kcat [5]: 0.418 ± 0.015 s⁻¹
- kcat/Km [5]: 6.6 M⁻¹ s⁻¹

B3: alcohol dehydrogenase KpADH mutant M3 (Y127M; parent SEQ ID No. 1) (Vanderwaltozyma polyspora DSM 70294; Y127M) (protein)
chain: B1 chain with Y127M
- Km [6]: 6.48 ± 0.45 mM
- kcat [6]: 0.658 ± 0.0317 s⁻¹
- kcat/Km [6]: 101.6 M⁻¹ s⁻¹
- Km [7]: 14.3 ± 0.9 mM
- kcat [7]: 0.777 ± 0.0283 s⁻¹
- kcat/Km [7]: 54.48 M⁻¹ s⁻¹

B4: alcohol dehydrogenase KpADH mutant M4 (V84I/Y127C; parent SEQ ID No. 1) (Vanderwaltozyma polyspora DSM 70294; V84I/Y127C) (protein)
chain: B1 chain with V84I, Y127C
- Km [8]: 12.9 ± 1.3 mM
- kcat [8]: 1.64 ± 0.0417 s⁻¹
- kcat/Km [8]: 127.2 M⁻¹ s⁻¹
- Km [9]: 16.3 ± 0.8 mM
- kcat [9]: 0.413 ± 0.0183 s⁻¹
- kcat/Km [9]: 25.35 M⁻¹ s⁻¹

B5: alcohol dehydrogenase KpADH mutant M5 (V84I/Y127M; parent SEQ ID No. 1) (Vanderwaltozyma polyspora DSM 70294; V84I/Y127M) (protein)
chain: B1 chain with V84I, Y127M
- Km [10]: 6.52 ± 1.0 mM
- kcat [10]: 1.25 ± 0.035 s⁻¹
- kcat/Km [10]: 200.53 M⁻¹ s⁻¹
- Km [11]: 8.21 ± 0.22 mM
- kcat [11]: 0.322 ± 0.015 s⁻¹
- kcat/Km [11]: 39.22 M⁻¹ s⁻¹

B6: alcohol dehydrogenase KpADH mutant M1 (V84I; parent SEQ ID No. 1) (Vanderwaltozyma polyspora DSM 70294; V84I) (protein)
chain: B1 chain with V84I
- Km [12]: 12.3 ± 0.7 mM
- kcat [12]: 1.08 ± 0.0283 s⁻¹
- kcat/Km [12]: 87.53 M⁻¹ s⁻¹
- Km [13]: 42.5 ± 1.5 mM
- kcat [13]: 0.852 ± 0.013 s⁻¹
- kcat/Km [13]: 20.03 M⁻¹ s⁻¹
